Assay results as given in publication PMC12302927, “Lactate-functionalized 3D-printed PCL/nHA scaffold drives BMSC osteogenesis via metabolic-epigenetic crosstalk” (Materials Today Bio, 2025).

What was measured:
[1] = biological target: T1, STAT1, endogenous in BMSCs (human (endogenous in BMSCs), UniProt P42224 1-750); experiment: co-IP; BMSC lysates, no osteogenic induction, 48h post-transfection; STAT1 antibody for pull-down with IgG control, Protein A/G agarose; blots probed for lactylation and Runx2; cells scaffold-free or on PCL/nHA/SL scaffold; band intensities quantified; details: partners not purified
T1 construct: STAT1, endogenous in human bone marrow mesenchymal stem cells (ATCC PCS-500-012); STAT1 precipitated with anti-STAT1 antibody from scaffold-free Runx2-OE cells, which carry no STAT1 construct; source: endogenous, human BMSC lysate
T1 sequence (looked up): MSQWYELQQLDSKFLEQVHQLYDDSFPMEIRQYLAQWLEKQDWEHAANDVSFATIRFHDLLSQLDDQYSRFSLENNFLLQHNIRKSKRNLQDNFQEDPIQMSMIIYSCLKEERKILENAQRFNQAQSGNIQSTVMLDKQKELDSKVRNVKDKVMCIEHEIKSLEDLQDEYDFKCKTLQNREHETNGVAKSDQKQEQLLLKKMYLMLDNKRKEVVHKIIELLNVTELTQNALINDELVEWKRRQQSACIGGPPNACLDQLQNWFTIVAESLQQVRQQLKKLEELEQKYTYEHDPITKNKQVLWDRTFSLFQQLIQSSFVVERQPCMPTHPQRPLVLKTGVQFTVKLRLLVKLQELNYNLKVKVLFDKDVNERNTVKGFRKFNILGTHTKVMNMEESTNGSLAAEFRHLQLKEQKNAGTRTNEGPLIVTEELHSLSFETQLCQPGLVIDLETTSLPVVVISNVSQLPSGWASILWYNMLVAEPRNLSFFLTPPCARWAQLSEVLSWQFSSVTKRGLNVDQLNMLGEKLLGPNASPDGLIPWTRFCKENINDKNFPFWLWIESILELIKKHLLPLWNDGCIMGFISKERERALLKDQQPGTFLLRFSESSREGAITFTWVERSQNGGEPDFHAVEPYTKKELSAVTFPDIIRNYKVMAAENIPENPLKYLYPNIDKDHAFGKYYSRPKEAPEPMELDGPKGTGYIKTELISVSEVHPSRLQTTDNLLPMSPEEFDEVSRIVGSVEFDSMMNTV

[2] = biological target: T2, wild-type STAT1, overexpressed (pLVX-STAT1-WT), scaffold-free BMSCs (UniProt P42224 1-750); experiment: as above; details: partners not purified
T2 construct: STAT1, wild type; No tag is stated for this experiment (the rescue lentivirus of another experiment is HA-tagged); The anti-STAT1 antibody precipitates the endogenous STAT1 as well; Lactylation was low in these cells (0.327 ± 0.046); also called STAT1-OE; source: human BMSCs, lentiviral transduction (pLVX-STAT1-WT), scaffold-free, in lysate
T2 sequence (looked up): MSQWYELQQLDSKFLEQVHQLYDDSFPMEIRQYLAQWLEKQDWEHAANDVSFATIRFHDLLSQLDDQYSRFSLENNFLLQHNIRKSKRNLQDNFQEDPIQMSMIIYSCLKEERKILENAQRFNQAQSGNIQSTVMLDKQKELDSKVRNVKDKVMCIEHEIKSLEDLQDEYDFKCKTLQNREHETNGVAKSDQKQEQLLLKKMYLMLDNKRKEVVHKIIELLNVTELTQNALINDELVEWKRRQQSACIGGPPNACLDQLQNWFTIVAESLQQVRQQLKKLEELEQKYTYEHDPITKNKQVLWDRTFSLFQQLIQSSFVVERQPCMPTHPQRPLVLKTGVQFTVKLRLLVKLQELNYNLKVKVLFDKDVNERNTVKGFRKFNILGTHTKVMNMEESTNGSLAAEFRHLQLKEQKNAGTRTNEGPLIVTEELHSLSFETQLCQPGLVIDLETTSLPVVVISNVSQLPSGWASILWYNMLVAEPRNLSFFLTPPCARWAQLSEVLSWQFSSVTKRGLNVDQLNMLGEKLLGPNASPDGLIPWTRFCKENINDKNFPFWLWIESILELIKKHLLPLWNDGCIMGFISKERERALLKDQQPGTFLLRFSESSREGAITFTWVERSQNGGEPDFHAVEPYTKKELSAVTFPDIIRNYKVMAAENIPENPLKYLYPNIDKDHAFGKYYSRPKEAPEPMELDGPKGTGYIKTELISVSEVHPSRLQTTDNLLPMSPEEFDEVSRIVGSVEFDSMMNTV

[3] = biological target: T3, wild-type STAT1, overexpressed (pLVX-STAT1-WT), lactylated in BMSCs on the PCL/nHA/SL scaffold (UniProt P42224 1-750, lysine lactylation, elevated 2.4-fold on the scaffold (Klac 0.797 ± 0.105); K193 named as the key lactylation site); experiment: as above; details: partners not purified
T3 construct: STAT1, wild type; A mixture of lactylated and unmodified STAT1, overexpressed and endogenous; also called lactylated STAT1; scaffold-containing cells (+STAT1-OE); source: human BMSCs, lentiviral transduction (pLVX-STAT1-WT), cultured on PCL/nHA/SL scaffold, in lysate
T3 sequence (looked up): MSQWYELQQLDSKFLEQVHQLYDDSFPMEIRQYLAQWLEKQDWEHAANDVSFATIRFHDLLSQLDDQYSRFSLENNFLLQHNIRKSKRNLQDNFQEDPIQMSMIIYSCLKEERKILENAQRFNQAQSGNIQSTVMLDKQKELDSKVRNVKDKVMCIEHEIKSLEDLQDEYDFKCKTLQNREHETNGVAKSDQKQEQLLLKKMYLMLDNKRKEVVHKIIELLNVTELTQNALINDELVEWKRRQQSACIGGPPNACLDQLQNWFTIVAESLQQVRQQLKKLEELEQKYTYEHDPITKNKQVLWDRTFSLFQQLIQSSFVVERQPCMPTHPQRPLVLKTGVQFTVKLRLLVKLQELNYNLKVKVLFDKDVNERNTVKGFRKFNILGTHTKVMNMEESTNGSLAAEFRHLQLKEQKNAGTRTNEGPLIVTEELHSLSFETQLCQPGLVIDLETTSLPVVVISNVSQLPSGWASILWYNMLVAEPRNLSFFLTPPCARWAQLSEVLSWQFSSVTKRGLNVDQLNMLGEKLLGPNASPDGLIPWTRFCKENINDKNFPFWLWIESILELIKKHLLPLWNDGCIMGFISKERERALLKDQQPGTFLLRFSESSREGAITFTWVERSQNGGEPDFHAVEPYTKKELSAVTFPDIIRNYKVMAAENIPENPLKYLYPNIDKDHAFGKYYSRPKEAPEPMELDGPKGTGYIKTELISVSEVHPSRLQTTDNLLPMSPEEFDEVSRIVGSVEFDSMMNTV

[4] = biological target: T3, wild-type STAT1, overexpressed …; experiment: cell-based or functional assay

B1: Runx2, overexpressed (pLVX-Runx2) (natural protein, UniProt Q13950 1-521, looked up)
chain: MASNSLFSTVTPCQQNFFWDPSTSRRFSPPSSSLQPGKMSDVSPVVAAQQQQQQQQQQQQQQQQQQQQQQQEAAAAAAAAAAAAAAAAAVPRLRPPHDNRTMVEIIADHPAELVRTDSPNFLCSVLPSHWRCNKTLPVAFKVVALGEVPDGTVVTVMAGNDENYSAELRNASAVMKNQVARFNDLRFVGRSGRGKSFTLTITVFTNPPQVATYHRAIKVTVDGPREPRRHRQKLDDSKPSLFSDRLSDLGRIPHPSMRVGVPPQNPRPSLNSAPSPFNPQGQSQITDPRQAQSSPPWSYDQSYPSYLSQMTSPSIHSTTPLSSTRGTGLPAITDVPRRISDDDTATSDFCLWPSTLSKKSQAGASELGPFSDPRQFPSISSLTESRFSNPRMHYPATFTYTPPVTSGMSLGMSATTHYHTYLPPPYPGSSQSQSGPFQTSSTPYLYYGTSSGSYQFPMVPGGDRSPSRMLPPCTTTSNGSTLLNPNLPNQNDGVDADGSHSSSPTVLNSSGRMDESVWRPY
notes: Runx2; The anti-Runx2 blot also sees the endogenous Runx2 of the BMSCs; also called Runx2-OE; source: human BMSCs, lentiviral transduction (pLVX-Runx2), in lysate
relative co-IP band intensity [1]: 0.582 | relative co-IP band intensity [2]: 0.845 | relative co-IP band intensity [3]: 0.286 | Osteocalcin protein (Western blot) in Runx2-OE + STAT1-OE BMSCs on the PCL/nHA/SL scaffold, rescued to STAT1-KD-like levels [4]: 0.474
